Reference: US20240100176A1 (Eli Lilly, published 2024)

Key:
Assay in all cases: capture ELISA: Ab1 on anti-human IgG Fc, His-tagged receptor at 1 µg/mL, anti-His HRP
[1] = biological target: T1, hexahistidine tagged human IL-4Rα ECD E6R (human, UniProt P24394 26-232)
T1 construct: not shown: hexahistidine tag
Description: (§1) Example 2d. […] Briefly, thirty surface amino acid residue substitutions were introduced individually into hexahistidine tagged human IL-4Rα extra cellular domain (ECD) as follows: K2D, E6R, K22D, P26R, T31R, F41A, L42G, L43G, E45R, E52R, G56R, D66R, A71R, Q82G, K87D, E94R, H107A, D108R, P124R, D125R, D143R, R148D, L155R, R160D, S164R, S168R, Q181R, P192R, K195D, or H197G. Each mutant protein having a single amino acid residue substitution as described above was transiently expressed in CHO cells and purified using standard immobilized metal affinity chromatography techniques. […] The plates were then washed 3 times with PBST and the exemplified human IL-4Rα antibody was added to the wells at a final concentration of 1 μg/mL in PBS-casein and incubated for 1 hour at room temperature. The plates were washed 3 times with PBST, the IL-4Rα mutant proteins were serially diluted 5-fold from 1 μg/mL for 3 points. in PBS-casein and added to the plate at 50 μL/well and incubated for 1 hour at room temperature. The plates were washed 3 times with PBST and a 1000-fold dilution of anti-histidine tag antibody HRP conjugate (R&D Systems, Cat. #MAB050H) in PBS-casein was added and incubated for 45 minutes at room temperature. The plates were washed 3 times, TMB substrate (Pierce, Cat. #34028) was added per manufacturer instructions, the reaction was quenched with H₂SO₄, and absorbance was read at 450 nm on an ELISA plate reader.

[2] = biological target: T2, hexahistidine tagged human IL-4Rα ECD T31R (human, UniProt P24394 26-232)
T2 construct: not shown: hexahistidine tag
T2 sequence (P24394 26-232 T56R): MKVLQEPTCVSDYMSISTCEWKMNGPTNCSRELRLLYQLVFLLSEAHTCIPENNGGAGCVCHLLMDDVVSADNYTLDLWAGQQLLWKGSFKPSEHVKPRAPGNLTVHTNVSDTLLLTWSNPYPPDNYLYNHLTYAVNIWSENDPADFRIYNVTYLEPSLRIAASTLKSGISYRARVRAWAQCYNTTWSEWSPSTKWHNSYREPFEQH
Description: as §1

[3] = biological target: T3, hexahistidine tagged human IL-4Rα ECD L42G (human, UniProt P24394 26-232)
T3 construct: not shown: hexahistidine tag
T3 sequence (P24394 26-232 L67G): as the sequence (P24394 26-232 T56R) above, with R31T, L42G counted along it
Description: as §1

[4] = biological target: T4, hexahistidine tagged human IL-4Rα ECD L43G (human, UniProt P24394 26-232)
T4 construct: not shown: hexahistidine tag
T4 sequence (P24394 26-232 L68G): as the sequence (P24394 26-232 T56R) above, with R31T, L43G counted along it
Description: as §1

[5] = biological target: T5, hexahistidine tagged human IL-4Rα ECD E45R (human, UniProt P24394 26-232)
T5 construct: not shown: hexahistidine tag
T5 sequence (P24394 26-232 E70R): as the sequence (P24394 26-232 T56R) above, with R31T, E45R counted along it
Description: as §1

[6] = biological target: T6, hexahistidine tagged human IL-4Rα ECD G56R (human, UniProt P24394 26-232)
T6 construct: not shown: hexahistidine tag
Description: as §1

[7] = biological target: T7, hexahistidine tagged human IL-4Rα ECD A71R (human, UniProt P24394 26-232)
T7 construct: not shown: hexahistidine tag
T7 sequence (P24394 26-232 A96R): as the sequence (P24394 26-232 T56R) above, with R31T, A71R counted along it
Description: as §1

[8] = biological target: T8, hexahistidine tagged human IL-4Rα ECD Q82G (human, UniProt P24394 26-232)
T8 construct: not shown: hexahistidine tag
T8 sequence (P24394 26-232 Q107G): as the sequence (P24394 26-232 T56R) above, with R31T, Q82G counted along it
Description: as §1

[9] = biological target: T9, hexahistidine tagged human IL-4Rα ECD K87D (human, UniProt P24394 26-232)
T9 construct: not shown: hexahistidine tag
Description: as §1

[10] = biological target: T10, hexahistidine tagged human IL-4Rα ECD H107A (human, UniProt P24394 26-232)
T10 construct: not shown: hexahistidine tag
T10 sequence (P24394 26-232 H132A): as the sequence (P24394 26-232 T56R) above, with R31T, H107A counted along it
Description: as §1

[11] = biological target: T11, hexahistidine tagged human IL-4Rα ECD T108R (human, UniProt P24394 26-232)
T11 construct: also called D108R; not shown: hexahistidine tag
Description: as §1

[12] = biological target: T12, hexahistidine tagged human IL-4Rα ECD D125R (human, UniProt P24394 26-232)
T12 construct: not shown: hexahistidine tag
T12 sequence (P24394 26-232 D150R): as the sequence (P24394 26-232 T56R) above, with R31T, D125R counted along it
Description: as §1

[13] = biological target: T13, hexahistidine tagged human IL-4Rα ECD D143R (human, UniProt P24394 26-232)
T13 construct: not shown: hexahistidine tag
T13 sequence (P24394 26-232 D168R): as the sequence (P24394 26-232 T56R) above, with R31T, D143R counted along it
Description: as §1

[14] = biological target: T14, hexahistidine tagged human IL-4Rα ECD L155R (human, UniProt P24394 26-232)
T14 construct: not shown: hexahistidine tag
T14 sequence (P24394 26-232 L180R): as the sequence (P24394 26-232 T56R) above, with R31T, L155R counted along it
Description: as §1

[15] = biological target: T15, hexahistidine tagged human IL-4Rα ECD R160D (human, UniProt P24394 26-232)
T15 construct: not shown: hexahistidine tag
T15 sequence (P24394 26-232 R185D): as the sequence (P24394 26-232 T56R) above, with R31T, R160D counted along it
Description: as §1

[16] = biological target: T16, hexahistidine tagged human IL-4Rα ECD S164R (human, UniProt P24394 26-232)
T16 construct: not shown: hexahistidine tag
Description: as §1

[17] = biological target: T17, hexahistidine tagged human IL-4Rα ECD S168R (human, UniProt P24394 26-232)
T17 construct: not shown: hexahistidine tag
Description: as §1

[18] = biological target: T18, hexahistidine tagged human IL-4Rα ECD Q181R (human, UniProt P24394 26-232)
T18 construct: not shown: hexahistidine tag
T18 sequence (P24394 26-232 Q206R): as the sequence (P24394 26-232 T56R) above, with R31T, Q181R counted along it
Description: as §1

T1 sequence (P24394 other isoform, or with tags, fused parts or gaps): as the sequence (P24394 26-232 T56R) above, with E6R, R31T counted along it

ELISA (OD450) [1]: 2.25 OD450 | ELISA (OD450) [2]: 1.64 OD450 | ELISA (OD450) [3]: 1.71 OD450 | ELISA (OD450) [4]: 1.7 OD450 | ELISA (OD450) [5]: 1.7 OD450 | ELISA (OD450) [6]: 1.73 OD450 | ELISA (OD450) [7]: 1.7 OD450 | ELISA (OD450) [8]: 1.74 OD450 | ELISA (OD450) [9]: 1.75 OD450 | ELISA (OD450) [10]: 1.89 OD450 | ELISA (OD450) [11]: 1.88 OD450 | ELISA (OD450) [12]: 1.79 OD450 | ELISA (OD450) [13]: 1.75 OD450 | ELISA (OD450) [14]: 1.78 OD450 | ELISA (OD450) [15]: 1.91 OD450 | ELISA (OD450) [16]: 1.92 OD450 | ELISA (OD450) [17]: 1.88 OD450 | ELISA (OD450) [18]: 1.91 OD450
B1: anti-human IL-4Rα antibody Ab1 (antibody, human IgG4 S228P, kappa)
heavy: QVQLVESGGGLVQPGGSLRLSCVASGFTFSHSSMNWVRQAPGKGLEWVSYISRATGAVYYADSVKGRFTISRDNAKNSLYLQMNSLRDEDTAVYYCAREPVFDYWGQGTLVTVSSASTKGPCVFPLAPCSRSTSESTAALGCLVKDYFPEPVTVSWNSGALTSGVHTFPAVLQSSGLYSLSSVVTVPSSSLGTKTYTCNVDHKPSNTKVDKRVESKYGPPCPPCPAPEFLGGPSVFLFPPKPKDTLMISRTPEVTCVVVDVSQEDPEVKFNWYVDGVEVHNAKTKPREEQFNSTYRVVSVLTVLHQDWLNGKEYKCKVSNKGLPSSIEKTISKAKGQPREPQVYTLPPSREEMTKNQVSLTCLVKGFYPSDICVEWESNGQPENNYKTTPPVLDSDGSFFLYSRLTVDKSRWQQGNVFSCSVMHEALHNHYTQKSLSLSLG
light: DIQMTQSPSAMSASVGDRVTITCRASQDISNYLAWFQQKPGKVPTRLIYAASSLQSGVPSRFSGSGSGTEFTLTISSLQPEDFATYYCLQWSSYPRTFGQGTKVEIKRTVAAPSVFIFPPSDEQLKSGTASVVCLLNNFYPREAKVQWKVDNALQSGNSQESVTEQDSKDSTYSLSSTLTLSKADYEKHKVYACEVTHQGLSSPVTKSFNRGEC
notes: human kappa light chain; also called anti-human IL-4Rα Ab1; unconjugated Ab1
